In patent US20220267451A1:

Biological target: recombinant IGF-1R extracellular domain (ECD) (UniProt P08069)
Test: SPR; antibody captured by immobilized anti-Fc, IGF-1R-ECD as analyte, global fit to single site model

teprotumumab (antibody), sequence (VH): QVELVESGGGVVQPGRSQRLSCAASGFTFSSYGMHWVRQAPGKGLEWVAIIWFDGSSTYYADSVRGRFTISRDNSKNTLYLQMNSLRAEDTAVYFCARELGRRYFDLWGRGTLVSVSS
teprotumumab (antibody), sequence (VL): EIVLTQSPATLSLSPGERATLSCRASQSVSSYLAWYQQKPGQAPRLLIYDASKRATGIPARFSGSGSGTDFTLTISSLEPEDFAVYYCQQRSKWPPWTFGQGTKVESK

Kd [nM]	koff [s⁻¹]	kon [M⁻¹ s⁻¹]	Molecule
2.2	0.00039	180000	teprotumumab (antibody)
0.57	5.1e-05	88000	VRDN-1100 (antibody, V domains shown) VH: QVQLVQSGAEVVKPGASVKLSCKASGYTFTSYWMHWVKQRPGQGLEWIGEINPSNGRTNYNQKFQGKATLTVDKSSSTAYMQLSSLTSEDSAVYYFARGRPDYYGSSKWYFDVWGQGTTVTVSS VL: DVVMTQTPLSLPVSLGDPASISCRSSQSIVHSNVNTYLEWYLQKPGQSPRLLIYKVSNRFSGVPDRFSGSGAGTDFTLRISRVEAEDLGIYYCFQGSHVPPTFGGGTKLEIKR
